Target: the molecule itself
Experiment: SEC; Sephacryl S-200 HR column calibrated with marker proteins; 50 mM phosphate buffer pH 6.5, 150 mM NaCl, 2 mM EDTA, 1 mM DTT, +4 °C; sample loaded at ~15 mg/mL total protein (second step of the purification)

B1: Helicobacter pylori adenylosuccinate synthetase (AdSS) (enzyme, Helicobacter pylori (strain ATCC 26695), UniProt P56137 1-411, looked up)
chain: MADVVVGIQWGDEGKGKIVDRIAKDYDFVVRYQGGHNAGHTIVHKGVKHSLHLMPSGVLYPKCKNIISSAVVVSVKDLCEEISAFEDLENRLFVSDRAHVILPYHAKKDAFKEKSQNIGTTKKGIGPCYEDKMARSGIRMGDLLDDKILEEKLNAHFKAIEPFKKAYDLGENYEKDLMGYFKTYAPKICPFIKDTTSMLIEANQKGEKILLEGAQGTLLDIDLGTYPFVTSSNTTSASACVSTGLNPKAINEVIGITKAYSTRVGNGPFPSEDTTPMGDHLRTKGAEFGTTTKRPRRCGWLDLVALKYACALNGCTQLALMKLDVLDGIDAIKVCVAYERKGERLEIFPSDLKDCVPIYQTFKGWEKSVGVRKLDDLEPNVREYIRFIEKEVGVKIRLISTSPEREDTIFL
notes: Adenylosuccinate synthetase (AdSS, EC 6.3.4.4), product of the purA gene of Helicobacter pylori strain ATCC 26695; amplified from genomic DNA with primers for the 5' and the 3' end of the gene; theoretical monomer mass 45,742.72 Da; Cloned between NdeI and XhoI of pET21b; The printed reverse primer appears to carry a stop codon before the XhoI site, so the vector's C-terminal His tag is probably …
  stoichiometry N: 2
